Experiment: yeast display, Sf9 membrane polyspecificity reagent, FACS + sequencing; frameworks hold sequencing errors
Summary of the method: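 After 36–48 hours of galactose induction, yeast (Saccharomyces cerevisiae BJ5465) displaying a synthetic nanobody library were stained at 4 °C for 1 hour with 10% biotinylated, detergent-solubilized Sf9 membrane reagent. Streptavidin microbeads enriched the stained cells before FACS sorting into low and high (top ~1%) gates on anti-HA and streptavidin fluorescence. Each clone's polyreactivity label reflects its gate of origin.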
For “QVQLVESGGGLVQAGGSLRLSCAASGSIFTRYTMGWDRQAPRKERELVATNSSRGDGTYYADSVKGRFTISRDNAKNTVYLQMNSLKPEDTAVYYCSARYRRVLSGYGYWGHGTQVTVSS”, the “polyreactivity (PSR sort gate)” value was “high polyreactivity”. For “QVQLVESGGGLVQAGGSLRLSCAASGSIFTRYVMGWYRQAPGKERELVAAISGRGSSTYYADSVKGRFTISRDNAKNTVYLQMNSLKPEDTAVYYCAAEIVVFYSEGQRNTFYYWGQGTQVTVSS”, the “polyreactivity (PSR sort gate)” value was “high polyreactivity”. In the case of “QVQLVESGGGLVQAGGSLRLSCAASGSIFTSNVMAWYRQAPGKERELVAAITITGTTTYADSVKGRFTISRDNAKNTVYLQMNSLIPEDTAVYYCAKDPVELSPADWRADYDYWGQGTQVTVSS”, the “polyreactivity (PSR sort gate)” value is reported as “low polyreactivity”. In the case of “QVQLVESGGGLVQAGGSLRLSCAASGSIFTTYAMGWYIQAPGKERELVAVISRRGGSTYYADSVKGRFTISRDNAKNTDYLQMNSLKPEDTAVYFCNAAYVWYRIFVRRDYWGQGTQVTVSS”, the “polyreactivity (PSR sort gate)” value is reported as “high polyreactivity”. For “QVQLVESGGGLVQAGGSLRLSCAASGSIFTTYAMGWYREAPGKERELVAAITDTSSTNYADSVKGRFTISRDNAKKTVFLQMNSLKPEDTAVYYCAVDLGYEYDWGQGTQVTVSS”, the “polyreactivity (PSR sort gate)” value was “low polyreactivity”. With “QVQLVESGGGLVQAGGSLRLSCAASGSIFTTYAMGWYRQAPGKERELVAAISSGGGTNYADSVKGRFTISRDNAKNTVYLQMNSLKPEDTAVYYCNKRYYRLQLHNAYGATPRRNYWGQGTQVTVSS” the “polyreactivity (PSR sort gate)” value was “low polyreactivity”. With “QVQLVESGGGLVQAGGSLRLSCAASGSIFTVNAMGWYRQAPGKERELVAAISSGGSTHYADSVKGRFTISRDNAKNTVYLQMNSLKPEDTAVYYCAAEVSYYLNEFDYWGQGTQVTVSS” the “polyreactivity (PSR sort gate)” value was “low polyreactivity”. In the case of “QVQLVESGGGLVQAGGSLRLSCAASGSIFTVYAMGWYRQAPGKERELVASISKSGGSTYYADSVKGRFTISRDNAKNTVYLQMNSLKPEDTAVYYCAAESGRTYSHRHYDSWGQGTQVTVSS”, the “polyreactivity (PSR sort gate)” value is reported as “low polyreactivity”. With “QVQLVESGGGLVQAGGSLRLSCAASGSIFTVYGMGWYRQAPGKERELVAAISRSGGSTYYADSVKGRFTISRDNAKNTVYLLMNSLKPEDTAVYYCAADVYRTWFWWFDYWGQGTQVTVSS” the “polyreactivity (PSR sort gate)” value was “high polyreactivity”. For “QVQLVESGGGLVQAGGSLRLSCAASGSIFTWNAMGWYSQAPGKERELVAAISWIGDSTYYADSVKGRFTISRDNAKNTVYLQMNSLKPEDTAVYYCAAEYAQGSRELESWGQGTQVTVSS”, the “polyreactivity (PSR sort gate)” value was “low polyreactivity”. With “QVQLVESGGGLVQAGGSLRLSCAASGSIFTWYAMGWYRQAPGKERELVAAITTSGGSTYYADSVKGRFTISRDNAKNTVYLQMNSLKPEDTAVYYCAKDGDYLFYYYGYDYWGQGTQVTVSS” the “polyreactivity (PSR sort gate)” value was “low polyreactivity”. For “QVQLVESGGGLVQAGGSLRLSCAASGSIFTYAMGWYRQAPGKERELVAAITYSGGRTDYADSVKGRFTISRDNAKNTVYLQMNSLKPEDTAVYYCAVRARPYPYYGALMYYWGQGTQVTVSS”, the “polyreactivity (PSR sort gate)” value was “low polyreactivity”. With “QVQLVESGGGLVQAGGSLRLSCAASGSIFTYNAMGWYRQAPGKERELVATISYSGGSTDYADSVKGRFTISRDNAKNTVYLQMNSLKPEDTAVYYCNKEYGYPPIWQDYGYDSWGQGTQVTVSS” the “polyreactivity (PSR sort gate)” value was “high polyreactivity”. In the case of “QVQLVESGGGLVQAGGSLRLSCAASGSIFTYNVMGWYRQAPGKERELVASISWSGGRTYYADSVKGRFTISRDYAKNTVYLQMNSLKPEDTAVYYCNNVRPPVYFPNRDYWGQGTQVNVSS”, the “polyreactivity (PSR sort gate)” value is reported as “low polyreactivity”. In the case of “QVQLVESGGGLVQAGGSLRLSCAASGSIFTYYAMGWYRQAPGKERELVAAISGSGGRTYYADSVKGRFTISRDNAKNPVYLQMNSLKPEDTAVYYCAVRSYRRFTHLYYRYDYWGQGTQVTVSS”, the “polyreactivity (PSR sort gate)” value is reported as “high polyreactivity”. In the case of “QVQLVESGGGLVQAGGSLRLSCAASGSIFTYYAMGWYRQAPGKERELVAAISSDGSTTYADSVKGRFTISRDNAKNTVYLQMNSLKPEDTAVLLLQRSGLRRSGVWFDYWGQGTQVTVSS”, the “polyreactivity (PSR sort gate)” value is reported as “low polyreactivity”. For “QVQLVESGGGLVQAGGSLRLSCAASGSIFTYYVRGWYRQAPVKERELVAGISRRGSTYYADSVKGRFTISRDNAKNTVYLQMNSLKQEDTAVYYCAAEPWVGTLYPRVGYWGQGTQVTVSS”, the “polyreactivity (PSR sort gate)” value was “low polyreactivity”. With “QVQLVESGGGLVQAGGSLRLSCAASGSIFVANAMGWYRPAPGKERELVAAISSGGSTYYADSVKGRFTISRDNAKNTVYLQMNSLKPEDTAVYDCAAGQPNLVVGHYYWGQGTQVTVSS” the “polyreactivity (PSR sort gate)” value was “low polyreactivity”. For “QVQLVESGGGLVQAGGSLRLSCAASGSIFVDNAMGWYRQATGKERELVAAISASGVTTYYADSVKGRFTISRDNAKNTVYLQMNSLKPEDTAVYYCNADYGSDDDVVRYDYWGQGTQVTVSS”, the “polyreactivity (PSR sort gate)” value was “low polyreactivity”. In the case of “QVQLVESGGGLVQAGGSLRLSCAASGSIFVEYAMGWYRQAPGKERELVAGISSGGITSYADSVKGRFTISRDNAKNTVYLQMNSLKPEDTAGYYCATDPYKWFYSSYYLLQEVEYWGQGTQVTVSS”, the “polyreactivity (PSR sort gate)” value is reported as “low polyreactivity”. In the case of “QVQLVESGGGLVQAGGSLRLSCAASGSIFVFNTMGWYRQAPGKERELVAAISDRGTRTYYADSVKGRFTISRDNAKNTVYLQMNSLKPEDTAVYYCATRVYFSPYRYDYWGQGTQVTVSS”, the “polyreactivity (PSR sort gate)” value is reported as “high polyreactivity”. With “QVQLVESGGGLVQAGGSLRLSCAASGSIFVFYAMGWYRQAPGKERELVAAINDGGSTHYADSVKGRFTISRDNAKNTVYLQMNSLKPEDTAVYYCAAEYVWYRYPDYWGAYDYWGQGTQVTVSS” the “polyreactivity (PSR sort gate)” value was “low polyreactivity”. For “QVQLVESGGGLVQAGGSLRLSCAASGSIFVGNAMGGYRQAPGKERELVAAITSSGGRTYYADSVKGRFTISRDNAKNTVYLQMNSLKPEDTAVYYCNTSRTRRFSLWAYDYWGQGTQVTVSS”, the “polyreactivity (PSR sort gate)” value was “high polyreactivity”. For “QVQLVESGGGLVQAGGSLRLSCAASGSIFVGNAMGWYRPAPGKERELVAAITGRGSRTYYADSVKGRFTLSRDNAKNTVYLQMNSLKPEDTAVYYCAARYTNYGGFYWGQGTQVTVSS”, the “polyreactivity (PSR sort gate)” value was “high polyreactivity”. With “QVQLVESGGGLVQAGGSLRLSCAASGSIFVGNAMGWYRQAPGKERELVAAISRSGGRTYYADSVKRRFTISRDNAKITVYLQMNSLKPEHTAVYYCNAYGWEQLQMDSWGQGTQVTVSS” the “polyreactivity (PSR sort gate)” value was “high polyreactivity”. With “QVQLVESGGGLVQAGGSLRLSCAASGSIFVGNAMGWYRQAPGKERELVAAISSSGGRTFYADSVKGRFTISRDNAKNTVYLQMNSLKPEDTAVYYCAAVYTHWQQRMDYWGQGTQVTVSS” the “polyreactivity (PSR sort gate)” value was “high polyreactivity”. With “QVQLVESGGGLVQAGGSLRLSCAASGSIFVGNAMGWYRQAPGKQRELVATISWSGGSTYYADSVKGRFTISRDNAKNTVYLQMNSVKPEDTAVYYCNAVYVSSFTGHDYWGQGTQVTVSS” the “polyreactivity (PSR sort gate)” value was “low polyreactivity”. With “QVQLVESGGGLVQAGGSLRLSCAASGSIFVGYAMGWYRQAPGKERELVAAISSNGGSTYYADSVKGRFTISRDNAKNTVYLQMNSLKPEDTAVYYCAKDYTYSFGRSLDYWGQGTQVTVSS” the “polyreactivity (PSR sort gate)” value was “low polyreactivity”. In the case of “QVQLVESGGGLVQAGGSLRLSCAASGSIFVGYAMGWYRQAPGKERELVAAITGSGTRTYYADSVKGRFTISRDNAKNTVFLQMNSLKPEDTAVYYCAAPLSYKNVKYDYWGQGTQVTVSS”, the “polyreactivity (PSR sort gate)” value is reported as “low polyreactivity”. For “QVQLVESGGGLVQAGGSLRLSCAASGSIFVGYAMGWYRQAPGKERELVAAITKRGGSTSYADSVKGRFTISRDNAKNTVYLQMNSLKPEDTAVYYCAKLYYRHLYEYDYWGQGTQVTVSS”, the “polyreactivity (PSR sort gate)” value was “high polyreactivity”. In the case of “QVQLVESGGGLVQAGGSLRLSCAASGSIFVGYAMGWYRQAPGKERELVASITTPGGSTHYADSVKGRFTISRDNAKNTVYLQMNSLKPEDTAVYYCAADSLSNGVLQYLPGYDYWGQGTQVTVSS”, the “polyreactivity (PSR sort gate)” value is reported as “low polyreactivity”. For “QVQLVESGGGLVQAGGSLRLSCAASGSIFVGYDMGWYRQAPGKERDLVASINGGDSTNYADSVKGRFTISRDNAKYTVYLQMNSLKPEDTAVYYCAKDVTYTDEYDYWGQGTQVTVSS”, the “polyreactivity (PSR sort gate)” value was “low polyreactivity”. In the case of “QVQLVESGGGLVQAGGSLRLSCAASGSIFVGYGALGWYRQAHGKERELVAAITSGTSTYYADSVKGRFTISRDNAKNTVYLQINSLKPEDTAVYYCAARGFLKYVTEFDYWGQGTQVTVSS”, the “polyreactivity (PSR sort gate)” value is reported as “low polyreactivity”. For “QVQLVESGGGLVQAGGSLRLSCAASGSIFVGYVMGWYRQAPGKERELVAAISRSGGRTYYADSVKGRFTISRDNAKNTVYLQMNSLKPEDTAVYYCAADSYTQPYGSLPHKQRYEYWGQGTQVTVSS”, the “polyreactivity (PSR sort gate)” value was “low polyreactivity”. For “QVQLVESGGGLVQAGGSLRLSCAASGSIFVHNAMGWSRQAPGKERELVAAITRGGSTYYADSVKGRFTISRDNAKNTVYLQMNSLKPEDTAVYYCAALAAWRWDLYDYWGQGTQVTVSS”, the “polyreactivity (PSR sort gate)” value was “low polyreactivity”. With “QVQLVESGGGLVQAGGSLRLSCAASGSIFVLYAMGWYRQAPGKERELVAAISWRGGGTYYADSVKGRFTISRDNAKNTVYLLMNSLKPEDTAVYYCAAEYRLDAILYTYEFDYWGQGTQVTVSS” the “polyreactivity (PSR sort gate)” value was “high polyreactivity”. In the case of “QVQLVESGGGLVQAGGSLRLSCAASGSIFVNKGMGWYRQAPGKERELVAAIRLSTGSTYYADSVKGRFTISRDNAKNTVYLKINSLKREDTAVDDCATRYYIWGNWGQGTQVTGSS”, the “polyreactivity (PSR sort gate)” value is reported as “high polyreactivity”. With “QVQLVESGGGLVQAGGSLRLSCAASGSIFVNNAMGWYRQAPGKERELVAAISSRGGSTYYADSVKGRFTISRDNAKNTVYLQMNSLKPEDTAVYYCAAEYDGPYYSFYPEQRYYWGQGTLVTVSS” the “polyreactivity (PSR sort gate)” value was “low polyreactivity”. With “QVQLVESGGGLVQAGGSLRLSCAASGSIFVNNAMGWYRQAPGKERELVAAISSRGGSTYYADSVKGRFTISRDNAKNTVYLQMYSLKPEDTAVYYCAAEYDGPYYSFYPEQRYYWGQGTQVTVSS” the “polyreactivity (PSR sort gate)” value was “low polyreactivity”. In the case of “QVQLVESGGGLVQAGGSLRLSCAASGSIFVNNAMGWYRQAPGKERELVAAISSRSSRTFYADSVKGRFTISRDNAKNTVYLQMNSLKPEDTAVYYCAVKKRAPDGDYWGQGTQVTVSS”, the “polyreactivity (PSR sort gate)” value is reported as “high polyreactivity”. For “QVQLVESGGGLVQAGGSLRLSCAASGSIFVPNAMGWYSQAPGKERELVASISYSGTSTYYADSVKGRFTISRDNAKNTVYLQMNSLKPEDTAVYYCAVTWYPWYYGYWGQGTQVTVSS”, the “polyreactivity (PSR sort gate)” value was “high polyreactivity”. With “QVQLVESGGGLVQAGGSLRLSCAASGSIFVQYALGWYRQAPGKERELVAAISQRGGSTYYADSVKGRFTISRDNAKNTVYVQMNSLKPADTAVYYCRPYPPSYYVTFGYGYWGQGTQVTVSS” the “polyreactivity (PSR sort gate)” value was “high polyreactivity”. In the case of “QVQLVESGGGLVQAGGSLRLSCAASGSIFVQYAMGWYRQAPGKERELVAAITRRAGSTYYADSVKGRFTISRDNAKNTVYLQMNSLKPEDTAVYYCAAGYRYRYTRDIWYEYWGQGTQVTVSS”, the “polyreactivity (PSR sort gate)” value is reported as “high polyreactivity”.

— the nanobody polyreactivity screen of Harvey et al. (2022)
